Assay [1] concerns the target EGFR of HaCaT (human keratinocyte) cells (human), P00533. Put plainly: cell-based or functional assay.
A further assay addresses EGFR-Fc, P00533. Kind of assay: TR-FRET competitive displacement of biotin-EGF from EGFR-Fc.

The term IC50 denotes the concentration that inhibits the measured activity by half. Low values mean greater potency in that assay, high ones weaker potency in that assay. In the case of QCKPNGAKCTEISIPPCCSNFCLRYAGQKSGTCANR (modifications not checked) [bleogen pB1], in assay [1], the HaCaT cell proliferation (crystal violet, 72 h), EC50 worked out at 130 nM. The same molecule displayed an IC50 with EGFR-Fc, P00533 of 1720 nM.

The values above are taken from patent US20220257706A1, “EPIDERMAL GROWTH FACTOR RECEPTOR (EGFR) LIGANDS” (NANYANG TECHNOLOGICAL UNIVERSITY, priority 2019, published 2022).
